Results on five proteins are retold here after publication PMC12548936, “Microfluidic‐Assisted Evolution of a Robust NAD^+‐Dependent Enzyme with Improved Isobutanol Tolerance at Elevated Temperatures” (Chemsuschem, 2025).

Where a chain is given by its changes, count along the chain named. In names and notes the source's numbering stands.

Substrate in data set [1]: NC(=O)c1ccc[n+]([C@@H]2O[C@H](COP(=O)(O)OP(=O)(O)OC[C@H]3O[C@@H](n4cnc5c(N)ncnc54)[C@H](O)[C@@H]3O)[C@@H](O)[C@H]2O)c1
In words: photometric ALDH activity assay, Michaelis-Menten fit. Type of data set: biochemical, Herbaspirillum seropedicae. As to conditions: co-substrate 5 mM D-glyceraldehyde, 100 mM HEPES, varied: cofactor.

Substrate in data set [2]: O=C[C@H](O)CO
The data set is described as follows: purified protein. The note with it: co-substrate 5 mM NAD+, 100 mM HEPES.

Setting [3] is: wild type, Chis tag, pH 7.5, 30 °C, 30.0 °C.
The mark [4] stands for this setting: FIN3, GS-linker Nhis tag, pH 7.5, 50 °C.
Where [5] appears, read: FIN3, GS-linker Nhis tag, pH 7.5, 50 °C, 50.0 °C.
[6] abbreviates: FIN5, GS-linker Nhis tag, pH 7.5, 50 °C, 50.0 °C.
[7] abbreviates: StEP template, GS-linker Nhis tag, pH 7.5, 50 °C.
Where [8] appears, read: StEP template, GS-linker Nhis tag, pH 7.5, 50 °C, 50.0 °C.
[9] abbreviates: FIN4, GS-linker Nhis tag, pH 7.5, 50 °C.
Where [10] appears, read: FIN4, GS-linker Nhis tag, pH 7.5, 50 °C, 50.0 °C.

B1: HsALDH (HsALDH_Chis; NAD+-dependent aldehyde dehydrogenase / glyceraldehyde dehydrogenase GADH) (Herbaspirillum seropedicae SmR1) (protein)
chain: MYKDVQLFINGEWTASASGRTIDVINPATEEVIGKIAHADRADLDRALEAASKGFETWRNMSAFERSKIMRRAADLLRERAEEVARLMTMEQGKPLAEAKMETLGAADTIDWFAEEARRTYGRLVPARVPGAYQMVIKEPVGPVAAFTPWNFPLNQVVRKLSAALAAGCSIIVKAPEETPASPAELIRAYADAGVPAGVINLVYGVPAEISEYLIPHPVIKKISFTGSTPVGKQLAALAGQHMKRATMELGGHAPAMVFDDADVDVAAKMLATAKFRNAGQVCVSPTRFLVQKGVFNAFVDKFVTYAEQLKVGNGLEAGITMGPVANKRRIPALEALIDDAVSQGAQLRTGGKRIGNKGYFFQPTVLTNLPLQARAMNEEPFGPLALINSFETLDEVITEANRLPYGLAAYAFAKSAHTKHALAARVESGMLTINHLGLALPELPFGGIKDSGYGSEGGTEAIEAYINTKLVTQLDV
notes: recombinant, E. coli BL21(DE3); wild type with C-terminal His tag (Chis); models show dimerizing chains
For B1, in data set [1] (wild type, Chis tag, pH 7.5, 30 °C), the Km (in general, the concentration of substrate that gives half-maximal velocity) came out at 590 µM. In addition, in data set [2] (setting [3]), the Km came to 13000 ± 400 µM and the kcat (as a rule, the maximal rate divided by the concentration of active sites) turned out to be 68.6 ± 0.8 s⁻¹.

B2: HsALDH (HsALDH_Chis; NAD+-dependent aldehyde dehydrogenase / glyceraldehyde dehydrogenase GADH) (Herbaspirillum seropedicae SmR1; F147L/I36V/K221R/V158A/V284I) (protein)
chain: B1 chain with I36V, F147L, V158A, K221R, V284I
notes: as for B1
For B2, in data set [1] (setting [4]), the Km came out at 420 ± 20 µM and the kcat was 46.9 ± 1.3 s⁻¹. Also, in data set [2] (setting [5]), the Km worked out at 3300 ± 400 µM and the kcat is 46.9 ± 1.3 s⁻¹.

B3: HsALDH (HsALDH_Chis; NAD+-dependent aldehyde dehydrogenase / glyceraldehyde dehydrogenase GADH) (Herbaspirillum seropedicae SmR1; … (protein)
chain: B1 chain with I36V, F147L, V158A, K221R, V284I, L432M
notes: as for B1
As to B3, the Km in data set [1] (FIN5, GS-linker Nhis tag, pH 7.5, 50 °C) is 340 µM; in data set [2] (setting [6]) it was 3500 ± 500 µM. Moreover, the kcat in data set [2] (setting [6]) is 54.8 ± 1.9 s⁻¹.

B4: HsALDH (HsALDH_Chis; NAD+-dependent aldehyde dehydrogenase / glyceraldehyde dehydrogenase GADH) (Herbaspirillum seropedicae SmR1; F147L/I36V/V284I) (protein)
chain: B1 chain with I36V, F147L, V284I
notes: as for B1
B4: in data set [1] (setting [7]), the Km was 510 ± 30 µM and the kcat amounted to 66.1 ± 2.0 s⁻¹. Also, in data set [2] (setting [8]), the Km was found to be 12700 ± 1200 µM and the catalytic constant (kcat) is 66.1 ± 2.0 s⁻¹.

B5: HsALDH (HsALDH_Chis; NAD+-dependent aldehyde dehydrogenase / glyceraldehyde dehydrogenase GADH) (Herbaspirillum seropedicae SmR1; F147L/I36V/K221R/L432M/V284I) (protein)
chain: B1 chain with I36V, F147L, K221R, V284I, L432M
notes: as for B1
For B5, the values for the Km in data set [1] (setting [9]) and in data set [2] (setting [10]) were 500 ± 60 µM and 7200 ± 800 µM, respectively. For the same protein, the turnover number (kcat) in data set [1] (setting [9]) and in data set [2] (setting [10]) was 46.6 ± 1.4 s⁻¹ throughout.
